Assay results published in US20250257130A1 (NONA BIOSCIENCES SUZHOU, published 2025).

What was measured:
[1] = biological target: T1, hu-ROR2-ECD-his (Acrobiosystems RO2-H52E5) (human, UniProt Q01974 34-403); test: BLI, antibody on AHC sensor, ROR2-His in solution
T1 construct: extracellular domain; bought protein; also called Human ROR2 his-tagged protein; Human ROR2, His Tag
Method: In the example, binding kinetics of anti-ROR1 antibodies to soluble ROR2 protein were analyzed by using Bio-Layer Interferometry (BLI) analysis on Fortebio Octet Red384 instrument (Fortebio). […] The captured biosensors were then dipped in wells containing 2-fold serial dilutions of antigen proteins to detect association signals, followed by dissociation steps in wells containing 1× kinetic buffer. Human ROR2 his-tagged protein (Acrobiosystems, #RO2-H52E5) was diluted from 600 nM to 37.5 nM; the association phase was 180 seconds, and the dissociation phase was 180 seconds. The sensorgrams were recorded and the reference signals were subtracted before curve fitting using ForteBio Data Analysis 11.0 software. Association rates (kₒₙ) and dissociation rates (kdis) were calculated using a simple one-to-one Langmuir binding model. The equilibrium dissociation constant (KD) was calculated as the ratio of kdis/kₒₙ.

[2] = biological target: T2, human ROR1 on cells (HEK293T-hROR1, PANC-1, A549) (human, UniProt Q01973 30-937); test: flow cytometry on PANC-1 cells, MFI (Median-APC) [middle panel, letter not given]
T2 construct: whole, on cells; one molecule for the three cell lines; also called huROR1; cell surface ROR1
T2 sequence (Q01973 30-937): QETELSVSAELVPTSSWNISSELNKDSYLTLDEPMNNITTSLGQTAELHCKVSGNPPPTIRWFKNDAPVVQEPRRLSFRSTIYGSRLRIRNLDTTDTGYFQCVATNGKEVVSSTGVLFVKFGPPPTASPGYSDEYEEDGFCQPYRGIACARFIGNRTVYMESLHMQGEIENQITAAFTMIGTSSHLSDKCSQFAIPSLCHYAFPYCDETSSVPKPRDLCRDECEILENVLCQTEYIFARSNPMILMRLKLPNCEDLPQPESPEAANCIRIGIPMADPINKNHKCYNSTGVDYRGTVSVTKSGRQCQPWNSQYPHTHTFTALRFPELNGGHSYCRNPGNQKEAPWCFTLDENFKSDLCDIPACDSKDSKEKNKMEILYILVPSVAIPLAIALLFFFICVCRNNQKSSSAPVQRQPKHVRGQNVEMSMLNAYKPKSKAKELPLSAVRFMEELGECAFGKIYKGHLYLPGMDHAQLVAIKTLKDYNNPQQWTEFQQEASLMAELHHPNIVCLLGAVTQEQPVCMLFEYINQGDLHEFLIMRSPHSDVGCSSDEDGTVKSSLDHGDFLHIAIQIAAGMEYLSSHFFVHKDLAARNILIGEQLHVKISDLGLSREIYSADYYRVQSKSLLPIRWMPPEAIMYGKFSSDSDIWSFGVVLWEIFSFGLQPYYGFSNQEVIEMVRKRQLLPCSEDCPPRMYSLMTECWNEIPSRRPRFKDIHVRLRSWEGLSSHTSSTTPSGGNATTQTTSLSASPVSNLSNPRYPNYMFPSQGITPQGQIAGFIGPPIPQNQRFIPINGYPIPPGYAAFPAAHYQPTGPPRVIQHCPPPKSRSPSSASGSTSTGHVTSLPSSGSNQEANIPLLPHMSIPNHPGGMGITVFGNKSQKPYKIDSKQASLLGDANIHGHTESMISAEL

[3] = biological target: T3, Human ROR1-ECD-his (Acro Biosystems RO1-H522y) (human, UniProt Q01973 30-406); test: BLI in-tandem, row = 1st Ab; competitor (2nd Ab): PR005338
T3 construct: extracellular domain; bought protein; also called hROR1-ECD-his; hu-ROR1-ECD-his
T3 sequence (Q01973 30-406): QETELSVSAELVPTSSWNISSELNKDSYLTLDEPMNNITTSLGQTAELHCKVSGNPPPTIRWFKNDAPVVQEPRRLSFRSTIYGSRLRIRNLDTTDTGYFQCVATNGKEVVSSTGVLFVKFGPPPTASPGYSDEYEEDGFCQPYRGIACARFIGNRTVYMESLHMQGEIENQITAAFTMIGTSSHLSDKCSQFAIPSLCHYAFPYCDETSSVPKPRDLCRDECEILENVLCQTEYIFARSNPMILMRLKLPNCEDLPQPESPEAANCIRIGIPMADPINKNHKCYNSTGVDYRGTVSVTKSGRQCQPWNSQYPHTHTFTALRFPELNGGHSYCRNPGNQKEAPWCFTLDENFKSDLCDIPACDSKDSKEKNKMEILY
Description: (§1) To determine if anti-ROR1 antibodies bind to human ROR1 on different or approximate binding epitopes, the ForteBio Octet® RED96e platform was used to perform epitope competition experiments on the anti-ROR1 antibodies. Human ROR1 protein (Acrobiosystems, #RO1-H522y) was biotinylated and then captured onto SA biosensors (ForteBio, #18-5020) to reach loading level of 0.3-0.4 nm. The in-tandem competition assay format was applied and it contains two association steps. Firstly, the antigen-loaded biosensors bind to each antibody (a.k.a, First antibody, 1st Ab) with a saturating concentration of 200 nM for 180 seconds to reach equilibrium and then secondly bind to the competing antibodies (a.k.a, Second antibody, 2nd Ab) of 200 nM for 180 seconds. The second binding signals were recorded as the 100% signal of each antibody when the first antibodies were replaced by kinetics buffer. All the binding data were analyzed using ForteBio Data Analysis 11.0 software. The inhibition rate is calculated by the following formula: […]

[4] = biological target: T3, Human ROR1-ECD-his (Acro Biosystems …); test: BLI, antibody on AHC sensor, ROR1-His 5-80 nM in solution
Method: The captured biosensors were then dipped in wells containing 2-fold serial dilutions of antigen proteins to detect association signals, followed by dissociation steps in wells containing 1× kinetic buffer. Human ROR1 hits-tagged protein (Acrobiosystems, #RO1-H522y) was diluted from 80 nM to 5 nM; the association phase was 180 seconds, and the dissociation phase was 600 seconds. The sensorgrams were recorded and the reference signals were subtracted before curve fitting using ForteBio Data Analysis 11.0 software. Association rates (kₒₙ) and dissociation rates (kdis) were calculated using a simple one-to-one Langmuir binding model. The equilibrium dissociation constant (KD) was calculated as the ratio of kdis/kₒₙ.

[5] = biological target: T4, cynomolgus ROR1 on CHO-K1-cynoROR1 cells (cynomolgus monkey, UniProt A0A2K5WTX7 30-937); test: flow cytometry on CHOK1-cynoROR1 cells, MFI (APC-A Median) [top panel]
T4 construct: whole, on cells
Method: (§2) Binding of recombinant anti-ROR1 antibodies to human or cynomolgus ROR1-overexpressing cells was tested by flow cytometry. In this example, ROR1-expressing cell lines are HEK293T cell lines that had been transfected to express human ROR1 on the surface (HEK293T-hu ROR1, KYINNO BIOTECHNOLOGY CO., LTD, Catalog #KC-1018), CHO-K1 cell lines that had been transfected to express cynomolgus ROR1 (CHOK1-cyno ROR1), PANC-1 (ATCC, catalog: CRL-1469) or A549 cell lines (Shanghai Institute of Biochemistry and Cell Biology, Chinese Academy of Sciences).
(§3) In brief, anti-ROR1 antibodies were serially diluted in staining buffer (PBS containing 2% FBS). Antibody solution was incubated with 1×10⁵ cells at 4° C. for 1 hour. […] After 1-hour incubation at 4° C., cells were washed twice with staining buffer and subjected to flow cytometry. PR000374 (Bench marker 1) and non-relevant IgG isotype control (Crownbio) were used as positive and negative controls, respectively.

[6] = biological target: T2, human ROR1 on cells (HEK293T-hROR1, …); test: flow cytometry on PANC-1 cells, MFI (Median-APC) [top panel]
[7] = biological target: T2, human ROR1 on cells (HEK293T-hROR1, …); test: flow cytometry on PANC-1 cells, MFI (Median-APC) [bottom panel, letter not given]
[8] = biological target: T4, cynomolgus ROR1 on CHO-K1-cynoROR1 cells; test: flow cytometry, CHO-K1-cynoROR1 cells
Method: as §2, §3

[9] = biological target: T3, Human ROR1-ECD-his (Acro Biosystems …); test: BLI in-tandem, row = 1st Ab; competitor (2nd Ab): PR007424
Description: as §1

[10] = biological target: T3, Human ROR1-ECD-his (Acro Biosystems …); test: BLI in-tandem, row = 1st Ab; competitor (2nd Ab): PR000374
Description: as §1

[11] = biological target: T3, Human ROR1-ECD-his (Acro Biosystems …); test: BLI in-tandem, row = 1st Ab; competitor (2nd Ab): PR005340
Description: as §1

[12] = biological target: T2, human ROR1 on cells (HEK293T-hROR1, …); test: flow cytometry, PANC-1 cells
Summary of the method: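 Anti-ROR1 antibodies, serially diluted in PBS with 2% FBS, were incubated with 1×10⁵ PANC-1 cells for 1 hour at 4° C. A further 1-hour incubation at 4° C followed, then two washes and flow cytometry. A benchmark anti-ROR1 antibody and an isotype IgG served as positive and negative controls.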

[13] = biological target: T2, human ROR1 on cells (HEK293T-hROR1, …); test: flow cytometry on PANC-1 cells, MFI (APC-A Median)
Method: as §2, §3

[14] = biological target: T2, human ROR1 on cells (HEK293T-hROR1, …); test: flow cytometry, PANC-1 cells; remark: listed apart in the source
Method: as §3

[15] = biological target: T3, Human ROR1-ECD-his (Acro Biosystems …); test: BLI in-tandem, row = 1st Ab; competitor (2nd Ab): PR007417
Description: as §1

[16] = biological target: T2, human ROR1 on cells (HEK293T-hROR1, …); test: flow cytometry on PANC-1 cells, MFI (FITC-A Median)
Method: as §2, §3

[17] = biological target: T4, cynomolgus ROR1 on CHO-K1-cynoROR1 cells; test: flow cytometry on CHOK1-cynoROR1 cells, MFI (APC-A Median) [middle panel, letter not given]
Method: as §2, §3

[18] = biological target: T3, Human ROR1-ECD-his (Acro Biosystems …); test: BLI, ROR1-His on HIS1K sensor, antibody in solution
Summary of the method: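 His-tagged ROR1 (20 nM) captured on HIS1K biosensors; serially diluted antibodies in kinetics buffer as analyte. Association and dissociation rate constants measured by Octet biolayer interferometry, sensors regenerated with 10 mM glycine-HCl pH 1.5 between cycles.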

[19] = biological target: T4, cynomolgus ROR1 on CHO-K1-cynoROR1 cells; test: flow cytometry, CHO-K1-cynoROR1 cells; remark: listed apart in the source
Method: as §3

[20] = biological target: T3, Human ROR1-ECD-his (Acro Biosystems …); test: ELISA, coated hu-ROR1-ECD-his
[21] = biological target: T1, hu-ROR2-ECD-his (Acrobiosystems …); test: ELISA, plate coated with hu-ROR2-his at 1 µg/mL
Summary of the method: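 Plates were coated overnight at 4 °C with 1 μg/mL human ROR2-ECD-his and blocked with 2% BSA. Serially diluted anti-ROR1 antibodies were bound for 1 h at 37 °C, then secondary antibody for 1 h at 37 °C. Detection was by TMB (~5 min), stopped with H2SO4, and read at 450/570 nm.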

[22] = biological target: T2, human ROR1 on cells (HEK293T-hROR1, …); test: flow cytometry, HEK293T-hROR1 cells; HEK293T-hROR1 cells (ROR1 overexpressed), FACS: binds
Method: as §3

[23] = biological target: T2, human ROR1 on cells (HEK293T-hROR1, …); test: flow cytometry on PANC-1 cells, MFI (FITC-A Median) [continued) C]
Method: as §2, §3

T1 sequence (Q01974 34-403): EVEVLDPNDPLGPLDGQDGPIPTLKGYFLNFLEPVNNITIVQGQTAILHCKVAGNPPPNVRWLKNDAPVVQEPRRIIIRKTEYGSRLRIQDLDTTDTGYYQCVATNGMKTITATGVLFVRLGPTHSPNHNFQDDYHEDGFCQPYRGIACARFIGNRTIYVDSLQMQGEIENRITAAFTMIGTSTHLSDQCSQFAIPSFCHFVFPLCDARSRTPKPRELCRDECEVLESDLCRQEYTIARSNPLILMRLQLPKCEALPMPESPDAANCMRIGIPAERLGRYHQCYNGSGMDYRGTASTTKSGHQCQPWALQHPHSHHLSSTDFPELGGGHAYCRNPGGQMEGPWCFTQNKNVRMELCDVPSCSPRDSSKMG

B1: PR005340 (antibody, human IgG1, V domains shown)
VH: EVQLVESGGGLVKPGGSLRLSCAASGFTFSDYYMSWIRQAPGKGLEWISYISSSGSTIHYADSVKGRFTISRDNAKNSLYLQMNSLRAEDTAIYYCARDIPSSSSDWVSLQFDYWGQGTLVTVSS
notes: HCAb (heavy chain-only, human IgG1 Fc), no light chain
For B1, the binding result [1] was “no binding (tested: 37.5-600 nM)”, the “EC50 (read off the curve)” value [2] was ~2 nM and the “Inhibition (%)” value [3] was 106%. The Kd [4] was 1.2 nM, the koff [4] was 0.000171 s⁻¹ and the kon [4] was 143000 M⁻¹ s⁻¹. The “EC50 (read off the curve)” value [5] was ~3 nM, the “EC50 (read off the curve)” value [6] was ~3 nM and the “EC50 (read off the curve)” value [7] was ~2 nM. For the same binder, the Max [8] was 36400, the “Inhibition (%)” value [9] was 106% and the “Inhibition (%)” value [10] was -0.17%. The “Inhibition (%)” value [11] was 109%, the TOP [12] was 84900 and the “EC50 (read off the curve)” value [13] was ~2 nM. For the same binder, the Max [14] was 17500 and the “Inhibition (%)” value [15] was 109%.

B2: PR005338 (antibody, human IgG1, V domains shown)
VH: EVQLVESGGGLVKPGGSLRLSCAASGFTFSDYYMSWIRQAPGKGLEWISYISSSGTTIHYADSVKGRFTISRDNAKNSLYLQMNSLRTEDTAVYYCARDAPSSNSDWVSLQFDYWGQGTLVTVSS
notes: as for B1
B2 was tested, and the binding result [1] was “no binding (tested: 37.5-600 nM)”, the “Inhibition (%)” value [3] was 104% and the Kd [4] was 2.4 nM. The koff [4] was 0.000316 s⁻¹, the kon [4] was 132000 M⁻¹ s⁻¹ and the “EC50 (read off the curve)” value [16] was ~7 nM. The Max [8] was 33300, the “Inhibition (%)” value [9] was 102% and the “EC50 (read off the curve)” value [17] was ~8 nM. For the same binder, the “Inhibition (%)” value [10] was -3.02%, the “Inhibition (%)” value [11] was 108% and the Max [14] was 12700. For the same binder, the “Inhibition (%)” value [15] was 108%.

B3: PR303189 (antibody, human IgG1, V domains shown)
VH: EVQLVESGGGLVKPGGSLRLSCAASGFNLSDSYMSWIRQAPGKGLEWVSCISSSGSTIYYADSVKGRFTVSRDNAKNSLYLQMNHLRAEDTALYYCARDCVIGIRDDSDIWGQGTMVTVSS
notes: as for B1
For B3, the Kd [18] was 0.623 nM, the koff [18] was 0.00403 s⁻¹ and the kon [18] was 6.46e+06 M⁻¹ s⁻¹. For the same binder, the EC50 [19] was 7.53 µg/mL, the “MAX(MFI)” value [19] was 5.3e+06 MFI and the EC50 [20] was 0.002 µg/mL. The binding result [21] was “no binding (tested: about 15 µg/ml)” and the EC50 [22] was 0.085 µg/mL.

B4: PR005352 (antibody, human IgG1, V domains shown)
VH: EVQLVESGGGLVKPGGSLRLSCAASGFTFSDYYMSWIRQAPGKGLEWISYISSSGGSIYYADSVKGRFTISRDNAKNSLYLQMNRLRAEDTALYYCARTPPSSNNWYEDFDYWGQGALVTVSS
notes: as for B1
For B4, the “EC50 (read off the curve)” value [23] was ~9 nM and the Max [14] was 23300.

B5: PR005344 (antibody, human IgG1, V domains shown)
VH: EVQLVESGGGLVKPGGSLRLSCAASGFTFSDYYMSWIRQAPGKGLEWISYISNSSSSISYANSVKGRFTVSRDNAKNSLYLQMNSLRAEDTALYYCARSPRGAFYEDFDYWGQGTLVTVSS
notes: as for B1
B5 was tested, and the “EC50 (read off the curve)” value [16] was ~20 nM, the Max [8] was 30700 and the “EC50 (read off the curve)” value [17] was ~10 nM. It also gave a Max [14] of 12400.

B6: PR005349 (antibody, human IgG1, V domains shown)
VH: EVQLVESGGGLVKPGGSLRLSCAASGFTFSDYYMSWIRQAPGKGLEWISYISNSSSSISYANSVKGRFTVSRDNAKNSLYLQMNSLRAEDTALYYCARSPRSAFYEDFDYWGQGTLVTVSS
notes: as for B1
With B6 the “EC50 (read off the curve)” value [23] was ~10 nM and the Max [14] was 27100.
